pKd: −log10 of the molar value. Values joined by “and” are separate entries in the source; they are usually repeats but may differ in a detail not shown here. Equal entries are not always repeated.
How the values were obtained:
[1] = biological target: PTH receptor present on the SaOS-2 (human osteosarcoma cells) (human (SaOS-2 human osteosarcoma cells)) (UniProt Q03431); assay: displacement of mono-125I-[Nle8,18,Tyr34(3-125I)]bPTH(1-34)NH2 from SaOS-2 cells; Kd defined as half maximal inhibition
[2] = biological target: PTH receptor present on the SaOS-2 (human osteosarcoma cells) (human (SaOS-2 human osteosarcoma cells)) (UniProt Q03431)

pKd [1]	EC50 (half maximal stimulation of adenylate cyclase, cAMP synthesis in SaOS-2 cells) [2]	Substance
8.30	1.5 nM	[Cha^7,11, Nle^8,18, Aib^16,19, Tyr^34]hPTH(1-34)NH2 (from UniProt P01270) (peptide)
7.40	4 nM	[Cha^7,11, Nle^8,18,31, Aib^16,19, Tyr^34]hPTH(1-34)NH2 (from UniProt P01270) (peptide)
7.30	2.5 nM	[Cha^28]hPTH(1-34)NH2 (from UniProt P01270) (peptide)
7.70	2.3 nM	[Cha^7]hPTH(1-34)NH2 (from UniProt P01270) (peptide)
8.30 and 7.30	2 nM and 3 nM	[Aib^17]hPTH(1-34)NH2 (from UniProt P01270) (peptide)
8.40	1.1 nM	[Aib^3]hPTH(1-34)NH2 (from UniProt P01270) (peptide)
8.40	0.6 nM	[Aib^16,19]hPTH(1-34)NH2 (from UniProt P01270) (peptide)
6.30	7 nM	[Cha^24,28,31, Lys^30]hPTH(1-34)NH2 (from UniProt P01270) (peptide)
8.40	2 nM	[Cha^7,11, Aib^19, Lys^30]hPTH(1-34)NH2 (from UniProt P01270) (peptide)
8.30	0.6 nM	[Aib^19]hPTH(1-34)NH2 (from UniProt P01270) (peptide)
7.30	2 nM	[Nle^8,18, Cha^27]hPTH(1-34)NH2 (from UniProt P01270) (peptide)
7.22	7 nM	[Cha^28,31]hPTH(1-34)NH2 (from UniProt P01270) (peptide)
8.40	0.7 nM	[Aib^10]hPTH(1-34)NH2 (from UniProt P01270) (peptide)
8.15	0.5 nM	[Cha^7,11, Aib^19]hPTH(1-34)NH2 (from UniProt P01270) (peptide)
8.40	1.1 nM	[Cha^7,11, Aib^16]hPTH(1-34)NH2 (from UniProt P01270) (peptide)
8.30	1.3 nM	[Cha^15]hPTH(1-34)NH2 (from UniProt P01270) (peptide)
6.00	30 nM	[Cha^24,28,31]hPTH(1-34)NH2 (from UniProt P01270) (peptide)
8.00	0.6 nM	[Cha^7,11]hPTH(1-34)NH2 (from UniProt P01270) (peptide)
8.22	0.6 nM	[Cha^7,11, Nle^8,18, Tyr^34]hPTH(1-34)NH2 (from UniProt P01270) (peptide)
8.40	0.7 nM	[Nle^31]hPTH(1-34)NH2 (from UniProt P01270) (peptide)
8.00	1.4 nM	[Cha^7,11,15]hPTH(1-34)NH2 (from UniProt P01270) (peptide)
6.82	10 nM	[Dap^1, Nle^8,18, Tyr^34]hPTH(1-34)NH2 (from UniProt P01270) (peptide)
6.70	20 nM	[Cha^23]hPTH(1-34)NH2 (from UniProt P01270) (peptide)
8.30	2 nM	[Cha^11]hPTH(1-34)NH2 (from UniProt P01270) (peptide)
7.52	4 nM	[Cha^31]hPTH(1-34)NH2 (from UniProt P01270) (peptide)
7.52	1.5 nM	[Cha^7,11, Nle^8,18,31, Aib^34]hPTH(1-34)NH2 (from UniProt P01270) (peptide)
8.15	3 nM	[Aib^34]hPTH(1-34)NH2 (from UniProt P01270) (peptide)
8.15	1 nM	[hArg^27]hPTH(1-34)NH2 (from UniProt P01270) (peptide)
7.00	10 nM	[Cha^24]hPTH(1-34)NH2 (from UniProt P01270) (peptide)
